From patent US20210130452A1 (Merck KGaA, published 2021)
Positions count from the first letter of the chain named.

Legend:
[1] = biological target: T1, rat IL-17F (rat, UniProt Q5BJ95 29-161); assay: binding ELISA
T1 sequence (looked up): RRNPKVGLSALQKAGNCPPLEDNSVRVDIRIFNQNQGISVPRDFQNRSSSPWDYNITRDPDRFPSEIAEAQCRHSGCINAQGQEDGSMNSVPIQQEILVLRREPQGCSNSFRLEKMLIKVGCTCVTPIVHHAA
Method: (§1) Binding of a selected panel of anti-IL-17 Nanobodies to IL-17 of other species was assessed using a binding ELISA. […] HRP (horseradish peroxidase) conjugated anti-myc (Serotec, MCA 2200P) was used for detection using esTMB as substrate.

[2] = biological target: T2, mouse IL-17F (mouse, UniProt Q7TNI7 29-161); assay: binding ELISA
T2 sequence (looked up): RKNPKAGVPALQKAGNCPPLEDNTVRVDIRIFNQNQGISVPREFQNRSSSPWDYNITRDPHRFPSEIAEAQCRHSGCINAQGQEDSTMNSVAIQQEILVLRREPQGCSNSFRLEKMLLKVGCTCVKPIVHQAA
Method: as §1

[3] = biological target: T3, rat IL-17A (rat, UniProt Q61453 18-150, limits assumed); assay: binding ELISA
T3 construct: made in E. coli, bought
T3 sequence (looked up): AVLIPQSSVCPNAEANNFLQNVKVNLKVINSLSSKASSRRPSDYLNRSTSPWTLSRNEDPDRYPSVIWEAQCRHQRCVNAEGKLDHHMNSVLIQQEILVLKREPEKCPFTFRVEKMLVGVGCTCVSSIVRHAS
Method: as §1

[4] = biological target: T4, mouse IL-17A (mouse, UniProt Q62386 26-158); assay: binding ELISA
T4 sequence (looked up): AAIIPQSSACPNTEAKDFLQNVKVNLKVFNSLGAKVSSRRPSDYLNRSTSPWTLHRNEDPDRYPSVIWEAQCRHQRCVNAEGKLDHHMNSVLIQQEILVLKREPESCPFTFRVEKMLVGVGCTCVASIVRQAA
Method: as §1

[5] = biological target: T5, human IL-17C (human, UniProt Q9P0M4 19-197); assay: SPR, cytokine on chip
T5 construct: expressed in E. coli; also called hIL-17C
T5 sequence (looked up): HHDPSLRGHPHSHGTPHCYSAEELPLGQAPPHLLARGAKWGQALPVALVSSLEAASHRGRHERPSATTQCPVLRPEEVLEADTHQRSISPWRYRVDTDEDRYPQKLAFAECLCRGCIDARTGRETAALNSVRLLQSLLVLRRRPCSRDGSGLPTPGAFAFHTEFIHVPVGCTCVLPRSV
From the text: (§2) Human IL-17B, IL-17C, IL-17D or IL-17E were all expressed in E. coli, and covalently bound to a CM sensor chip surface via amine coupling using EDC/NHS for activation and HCl for deactivation.
(§3) Next, binding buffer was sent over the chip at the same flow rate to allow spontaneous dissociation of bound Nanobody or antibody.

[6] = biological target: T6, human IL-17E (human, UniProt Q9H293 33-177); assay: SPR, cytokine on chip
T6 construct: expressed in E. coli; also called hIL-17E
T6 sequence (looked up): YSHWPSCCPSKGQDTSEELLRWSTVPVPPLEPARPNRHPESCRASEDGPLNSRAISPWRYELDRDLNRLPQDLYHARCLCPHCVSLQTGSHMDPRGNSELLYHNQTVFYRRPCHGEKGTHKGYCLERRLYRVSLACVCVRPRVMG
From the text: as §2, §3

[7] = biological target: T7, human IL-17D (human, UniProt Q8TAD2 18-202, limits assumed); assay: SPR, cytokine on chip
T7 construct: expressed in E. coli; also called hIL-17D
T7 sequence (looked up): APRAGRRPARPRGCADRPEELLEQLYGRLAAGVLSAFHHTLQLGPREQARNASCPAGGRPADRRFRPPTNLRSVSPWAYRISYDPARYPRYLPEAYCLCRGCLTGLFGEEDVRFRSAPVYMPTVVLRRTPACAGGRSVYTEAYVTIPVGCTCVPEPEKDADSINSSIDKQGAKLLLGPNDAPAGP
From the text: as §2, §3

[8] = biological target: T8, human IL-17B (human, UniProt Q9UHF5 21-180); assay: SPR, cytokine on chip
T8 construct: expressed in E. coli; also called hIL-17B
T8 sequence (looked up): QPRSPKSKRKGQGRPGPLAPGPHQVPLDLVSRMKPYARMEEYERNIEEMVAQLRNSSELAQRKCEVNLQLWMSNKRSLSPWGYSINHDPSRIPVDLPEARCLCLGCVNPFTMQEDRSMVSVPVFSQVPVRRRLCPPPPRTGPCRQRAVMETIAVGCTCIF
From the text: as §2, §3

[9] = biological target: T9, human IL-17A (human, UniProt Q16552 24-155); assay: AlphaScreen hIL-17A-IL-17RA; vs IL17MS13E02
T9 construct: secreted form made in Hek293 cells (GenBank U32659); also called hIL-17A; hIL17A

[10] = biological target: T10, human IL-17F (human, UniProt Q96PD4 31-163); assay: SPR (Biacore) off-rate
T10 construct: made in Hek293 cells (GenBank AF384857); also called hIL-17F; hIL17F
T10 sequence: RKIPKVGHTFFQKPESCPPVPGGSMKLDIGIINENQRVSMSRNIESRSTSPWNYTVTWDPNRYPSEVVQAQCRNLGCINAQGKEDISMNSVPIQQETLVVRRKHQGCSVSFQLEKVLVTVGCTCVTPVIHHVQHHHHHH

[11] = biological target: T10, human IL-17F; assay: AlphaScreen hIL-17F-IL-17RC; vs IL17MS13E02

T9 sequence (Q16552 other isoform, or with tags, fused parts or gaps): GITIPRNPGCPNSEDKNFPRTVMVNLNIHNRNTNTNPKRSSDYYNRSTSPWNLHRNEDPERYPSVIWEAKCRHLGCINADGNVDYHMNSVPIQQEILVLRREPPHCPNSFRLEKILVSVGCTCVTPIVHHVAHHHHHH

B1: 13B05 (VHH)
VHH: EVQLVESGGRLVQAGGSLRLSCAASGRTFTSYPMGWFRQAPGKEREFVAAISMSGDDTAYTDFVRGRFTISRDDARNTVYLHMTSLKPEDTAVYYCAARTSYDGTYDYIDDYSYWGQGTQVTVSS
notes: Class 4
Question: Does B1 bind [1]?
Answer: Result: no binding (tested: 250 nM)

Question: Does B1 bind [2]?
Answer: Result: no binding (tested: 250 nM)

Question: Does B1 bind [3]?
Answer: Result: no binding (tested: 250 nM)

Question: Does B1 bind [4]?
Answer: Result: no binding (tested: 250 nM)

Question: Does B1 bind [5]?
Answer: Result: no binding

Question: Does B1 bind [6]?
Answer: Result: no binding

Question: Does B1 bind [7]?
Answer: Result: no binding

Question: Does B1 bind [8]?
Answer: Result: no binding

B2: 17C01 (VHH)
VHH: B1 VHH with S21P, T58A, T61A
notes: Class 4
Question: Does B2 bind [1]?
Answer: Result: no binding (tested: 250 nM)

Question: Does B2 bind [2]?
Answer: Result: no binding (tested: 250 nM)

Question: Does B2 bind [3]?
Answer: Result: no binding (tested: 250 nM)

Question: Does B2 bind [4]?
Answer: Result: no binding (tested: 250 nM)

Question: Does B2 bind [5]?
Answer: Result: no binding

Question: Does B2 bind [6]?
Answer: Result: no binding

Question: Does B2 bind [7]?
Answer: Result: no binding

Question: Does B2 bind [8]?
Answer: Result: no binding

B3: 13B03 (VHH)
VHH: EVQLVESGGGSVQAGDSLRLSCAASGRANSINWFGWFRQTPGKEREFVAGIRWSDAYTEYANSVKGRFTISRDNAKNTVDLQMDSLKPEDTAVYYCVLDLSTVRYWGQGTQVTVSS
notes: Class 4; also called IL17MS13B03
Question: Does B3 bind [1]?
Answer: Result: no binding (tested: 250 nM)

Question: Does B3 bind [2]?
Answer: Result: no binding (tested: 250 nM)

Question: Does B3 bind [3]?
Answer: Result: no binding (tested: 250 nM)

Question: Does B3 bind [4]?
Answer: Result: no binding (tested: 250 nM)

Question: Does B3 bind [5]?
Answer: Result: no binding

Question: Does B3 bind [6]?
Answer: Result: no binding

Question: Does B3 bind [7]?
Answer: Result: no binding

Question: Does B3 bind [8]?
Answer: Result: no binding

B4: 03C07 (VHH)
VHH: EVQLVESGGGLVQAGGSLRLSCAASGFTFDDYAIGWFRQAPGKEREAVSCFSSSDGSIYYADSVKGRFTISSDNAKNTVYLQMNSLKPEDTAVYYCAGGGGSYYYTQLNYCYDMDYWGKGTQVTVSS
notes: Class 2
Question: Does B4 bind [3]?
Answer: Result: no binding (tested: 250 nM)

Question: Does B4 bind [4]?
Answer: Result: no binding (tested: 250 nM)

Question: Does B4 bind [5]?
Answer: Result: no binding

Question: Does B4 bind [6]?
Answer: Result: no binding

Question: Does B4 bind [7]?
Answer: Result: no binding

Question: Does B4 bind [8]?
Answer: Result: no binding

B5: 04B09 (VHH)
VHH: EVQLVESGGGLVQPGGSLRLSCAASGFTLGYYAIGWFRQAPGKEREGVSCDSSSDGDTYYANSVKGRFTISTDNGKNTVYLQMNSLKPEDTAVYYCATCTDWNYDYWGQGTQVTVSS
notes: Class 2; also called 04B9
Question: Does B5 bind [3]?
Answer: Result: no binding (tested: 250 nM)

Question: Does B5 bind [4]?
Answer: Result: no binding (tested: 250 nM)

Question: Does B5 bind [5]?
Answer: Result: no binding

Question: Does B5 bind [6]?
Answer: Result: no binding

Question: Does B5 bind [7]?
Answer: Result: no binding

Question: Does B5 bind [8]?
Answer: Result: no binding

B6: 11C08 (VHH)
VHH: EVQLVESGGGLVQAGGSLRLSCAASGVIFRLNAMGWYRAAPGKQRELVAIIVNGGSTNYADSVKGRFTISRDSAKNAVYLQMNSLKPEDTAVYYCYYNIPGDVYWGQGTQVTVSS
notes: Class 4
Question: Does B6 bind [1]?
Answer: Result: no binding (tested: 250 nM)

Question: Does B6 bind [2]?
Answer: Result: no binding (tested: 250 nM)

Question: Does B6 bind [3]?
Answer: Result: no binding (tested: 250 nM)

Question: Does B6 bind [4]?
Answer: Result: no binding (tested: 250 nM)

Question: Does B6 bind [5]?
Answer: Result: no binding

Question: Does B6 bind [6]?
Answer: Result: no binding

Question: Does B6 bind [7]?
Answer: Result: no binding

Question: Does B6 bind [8]?
Answer: Result: no binding

B7: 04G01 (VHH)
VHH: EVQLVESGGGLVQAGGSQRLSCTASGTIVNIHVMGWYRQAPGKQRELVALIFSGGSADYADSVKGRFTISRDNAKNTVYLEMNSLKAEDTAVYYCAAEIGYYSGGTYYSSEAHWGQGTQVTVSS
notes: Class 2; also called IL17MS04G01; 04G1
Question: What does the source list for B7?
Answer: binding result [3]: no binding (tested: 250 nM); binding result [4]: no binding (tested: 250 nM); binding result [5]: no binding; binding result [6]: no binding; binding result [7]: no binding; binding result [8]: no binding

B8: IL17MS3027 (VHH)
VHH: EVQLVESGGGLVQPGGSLRLSCAASGRTYDAMGWLRQAPGKEREFVAAISGSGDDTYYADSVKGRFTISRDNSGNTMYLQMNSLRPEDTAVYYCATRRGLYYVWDSNDYENWGQGTLVTVSS
notes: variant of IL17MS13E02; Kabat numbering
Question: How did the “IC50 fold difference vs WT” value [9] turn out when B8 was run?
Answer: Its value is 1.23 fold.

Question: What about the koff [10] of the same binder?
Answer: The koff was 0.0013 s⁻¹.

Question: What about the “IC50 fold difference vs WT” value [11] of the same binder?
Answer: Its value is 0.6 fold.

B9: 13E02 (VHH)
VHH: B8 VHH with P14A, R70K, S73A, N75I, R85K, L117Q
notes: Class 4; also called IL17MS13E02
Question: Does B9 bind [1]?
Answer: Result: no binding (tested: 250 nM)

Question: Does B9 bind [2]?
Answer: Result: no binding (tested: 250 nM)

Question: Does B9 bind [3]?
Answer: Result: no binding (tested: 250 nM)

Question: Does B9 bind [4]?
Answer: Result: no binding (tested: 250 nM)

Question: Does B9 bind [5]?
Answer: Result: no binding

Question: Does B9 bind [6]?
Answer: Result: no binding

Question: Does B9 bind [7]?
Answer: Result: no binding

Question: Does B9 bind [8]?
Answer: Result: no binding

B10: IL17MS3032 (VHH)
VHH: B8 VHH with G74K
notes: as for B8
Question: Which “IC50 fold difference vs WT” value [9] does the source give for B10 here?
Answer: Its value is 1.42 fold.

Question: What about the koff [10] of the same binder?
Answer: The koff was 0.00083 s⁻¹.

Question: What about the “IC50 fold difference vs WT” value [11] of the same binder?
Answer: Its value is 0.5 fold.

B11: 09G10 (VHH)
VHH: EVQLVESGGGLVQAGGSLRLSCAASDSVFTAKAVGWYRQPPGLQREWVAIITSGGKTNYADSSVKGRFTVSVDKVKNTVTLQMNSLKPEDTAVYYCYAQWMGRDYWGQGTQVTVSS
notes: Class 2
Question: What does the source list for B11?
Answer: binding result [3]: no binding (tested: 250 nM); binding result [4]: no binding (tested: 250 nM); binding result [5]: no binding; binding result [6]: no binding; binding result [7]: no binding; binding result [8]: no binding

B12: 11A06 (VHH)
VHH: EVQLVESGGGLVQPGESLRLSCKASGFSLDYYALGWFRQAPGKEREGISCITSSDASAYYTDSVKGRFTISRDNSKNTVYLQMNSLKTEDTAIYYCAAALLTCSSYYDAYTYWGQGTQVTVSS
notes: Class 2
Question: Does B12 bind [3]?
Answer: Result: no binding (tested: 250 nM)

Question: Does B12 bind [4]?
Answer: Result: no binding (tested: 250 nM)

Question: Does B12 bind [5]?
Answer: Result: no binding

Question: Does B12 bind [6]?
Answer: Result: no binding

Question: Does B12 bind [7]?
Answer: Result: no binding

Question: Does B12 bind [8]?
Answer: Result: no binding

B13: 01A01 (VHH)
VHH: EVQLVESGGGLVQAGGSLRLSCAASGFTFDDYDIGWFRQAPGKEREGVSCFTSSDGRTFYADSVKGRFTVSADNAKNTVYLQMNSLEPEDTAVYFCAAVNTFDESAYAAFACYDVVRWGQGTQVTVSS
notes: Class 4
Question: What does the source list for B13?
Answer: binding result [1]: no binding (tested: 250 nM); binding result [2]: no binding (tested: 250 nM); binding result [3]: no binding (tested: 250 nM); binding result [4]: no binding (tested: 250 nM); binding result [5]: no binding; binding result [6]: no binding; binding result [7]: no binding; binding result [8]: no binding
